Laboratory results as given in paper PMC4630568, “Arabidopsis LEAFY COTYLEDON1 controls cell fate determination during post-embryonic development” (Frontiers in Plant Science, 2015).

Molecular target: T1, His-LEC1 (LEAFY COTYLEDON1) (Arabidopsis, UniProt Q9SFD8 1-238)
T1 construct: LEAFY COTYLEDON1 (LEC1), NF-Y transcription factor, Arabidopsis, AT1G21970; Vector pQE30; source: E. coli Rosetta DE3, purified (Ni-nitrilotriacetic acid agarose beads)
T1 sequence (looked up): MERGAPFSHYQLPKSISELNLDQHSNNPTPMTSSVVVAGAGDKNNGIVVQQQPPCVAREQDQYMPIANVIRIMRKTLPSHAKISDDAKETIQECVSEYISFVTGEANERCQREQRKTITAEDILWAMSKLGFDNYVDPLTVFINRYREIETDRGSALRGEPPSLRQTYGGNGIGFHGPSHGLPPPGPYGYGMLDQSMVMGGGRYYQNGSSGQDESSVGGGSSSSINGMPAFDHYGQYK
Assay: pull-down; 2 μg of His-LEC1 or His-GFP incubated with immobilized GST or GST fusion proteins; 50 mM Tris-HCl pH 8.0, 100 mM NaCl, 1 mM EDTA; 4°C, 4 h; detected with an anti-His antibody
Details: both partners purified

B1: GST-TCL2 (TRICHOMELESS2) (natural protein, Arabidopsis, UniProt B3H4X8 1-100, looked up)
chain: MDNTNRLRHLRSRKQSKFTLGDTAEVNSVKWEFINMTEQEEDLIFRMHRLVGDRWDLIAGRVVGREAKDIERYWIMRNCDHCSHKRRRVHKFYRFSISPP
notes: TCL2, single-repeat R3 MYB protein, Arabidopsis, AT2G30424; Vector pGEX-4T-1; source: E. coli Rosetta DE3, purified (glutathione sepharose beads)
B1: binds.
